Results from US20250304670A1 (AstraZeneca / MedImmune, published 2025).
Changes are numbered by the printed parent chain. Numbers in names are those of the source. Blank lines part the entries; values can stand above or below the binder they belong to.

Key:
[1] = molecular target: T1, Biotinylated Murine Amyloid Beta 1-42 peptide (murine, not fully specified; N-terminal biotin); test: direct binding HTRF, purified sFab and biotinylated peptide
T1 construct: Anaspec 61718-01
T1 peptide: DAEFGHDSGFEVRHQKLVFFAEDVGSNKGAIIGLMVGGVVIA

[2] = molecular target: T2, Biotinylated Scrambled Amyloid Beta 1-42 peptide (N-terminal biotin); test: direct binding HTRF, purified sFab and scrambled peptide
T2 construct: Anaspec custom synthesis; control peptide; also called scrambled human Amyloid beta 1-42 peptide; biotinylated scrambled human Amyloid beta 1-42
T2 peptide: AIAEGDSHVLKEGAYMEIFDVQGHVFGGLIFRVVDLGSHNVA

[3] = molecular target: T3, Biotinylated Human Amyloid Beta 1-42 peptide (human, N-terminal biotin); test: HTRF direct binding: dilution series of purified His-tagged Fab with biotinylated human Amyloid beta 1-42 peptide, streptavidin cryptate and anti-6his-XL665 (sections 1.3, 1.4)
T3 construct: synthetic (rPeptide A1117 or Bachem H-5642); also called N-terminal biotin Abeta 1-42; synthetic biotinylated human Amyloid beta 1-42 peptide
Description: (§1) Selection outputs were screened as unpurified bacterial periplasmic extracts containing sFab, prepared in 50 mM MOPS buffer pH 7.4, 0.5 mM EDTA and 0.5 M sucrose. Ten microlitres of unpurified sFab samples were added to a Costar® 384 well assay plate (Corning, USA; cat: 3676). This was followed by the addition of 5 μl of 20 nM synthetic human Amyloid beta 1-42 and 5 μl of a combined solution of 6 nM streptavidin cryptate and 20 nM anti-his-XL665. Non-specific binding wells (negative controls) were defined for each plate by using a negative control unpurified sFab in place of the test sFab sample. Cross-reactive sFab clones were identified using a concurrent assay with human Amyloid beta 1-40 peptide. […] Assay plates were incubated for 4 hours at room temperature prior to reading time resolved fluorescence on an EnVision plate reader (PerkinElmer, USA) using an excitation wavelength of 320 nm and measuring the emission at 620 nm and 665 nm (100 flashes).
(§2) The sFab with unique protein sequences were expressed in E. coli and purified by affinity chromatography (essentially as described (Bannister et al., 2006)). The Amyloid beta binding profile of each purified sFab was determined by testing a dilution series of the purified sFab in the HTRF™ assay described in section 1.3, substituting the unpurified sFab periplasmic preparation with the purified sFab.

[4] = molecular target: T4, Biotinylated Human Amyloid Beta 1-40 peptide (human, N-terminal biotin); test: HTRF direct binding: dilution series of purified His-tagged Fab with biotinylated human Amyloid beta 1-40 peptide, streptavidin cryptate and anti-6his-XL665 (sections 1.3, 1.4)
T4 construct: synthetic
T4 sequence (peptide, as listed by the source): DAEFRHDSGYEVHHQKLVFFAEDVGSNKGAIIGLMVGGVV
Description: as §1, §2

[5] = molecular target: T5, Human Amyloid Beta 1-42 peptide (human); test: SPR (BIAcore T-100), peptide over amine-coupled IgG, 1:1 Langmuir fit
T5 construct: synthetic, unlabelled; also used here for the endogenous peptide of human plasma in the depletion assay; also called unlabelled human Amyloid beta 1-42; synthetic human Amyloid beta 1-42 peptide
Description: (§3) The affinity of binding between each test IgG and human Amyloid beta 1-42 was estimated using assays in which the antibody was covalently coupled by amine linkage to a proprietary CM3 chip surface to a final surface density of approximately 2,000 RU. The chip surface was regenerated between cycles by a single 40 second injection of 10 mM Glycine pH 2.0 to remove ligand bound to the antibody.
Blank reference flow-cell data were subtracted from each IgG dataset and a zero-concentration buffer blank was double-reference subtracted from the main dataset to reduce the impact of any buffer artefacts or non-specific binding effects. An appropriate binding model was then fitted simultaneously to the data from each analyte titration using the BIAevaluation software.

[6] = molecular target: T6, Human Amyloid Beta 1-40 peptide (human); test: TR-FRET peptide competition: dilution series of unlabelled peptide against 1.5 nM biotinylated human Amyloid beta 1-42 peptide for 0.28 nM Abet0144-GL IgG1-TM (section 2.10)
T6 construct: synthetic, unlabelled; also called unlabelled human Amyloid beta 1-40
T6 sequence (peptide, as listed by the source): as above
Description: (§4) This involved the use of Europium cryptate labelled anti-human Fc IgG (CisBio International, France; cat: 61 HFCKLB) and XL665 labelled streptavidin (CisBio International, France; cat: 611SAXLB) TR-FRET detection reagents.
(§5) Experiments were set up in Costar 384 well shallow bottom microtitre plates. […] 5 μl of assay buffer only was added to the negative binding assay control wells. […] 5 μl per well of each test peptide serial dilution was then transferred onto the 384 well assay plate. 5 μl of assay buffer only was added to the total and negative binding assay control wells. […] Finally, a combined solution was prepared containing Europium cryptate labelled anti-human Fc (2.4 nM) and XL665 labelled streptavidin (60 nM). 5 μl per well of this solution was added to all wells of the 384 well assay plate such that the final concentrations of Europium cryptate labelled anti-human Fc and XL665 labelled streptavidin were 0.6 nM and 15 nM, respectively.

[7] = molecular target: T7, human Amyloid beta pyro 3-42 peptide (human, pyroglutamate at residue 3 (the N-terminal residue)); test: TR-FRET peptide competition against biotinylated human Amyloid beta 1-42
T7 construct: the pyro form (Anaspec 29907) has no entry of its own; also called Abeta pyro-3-42; Abeta Pyro-3-42
Description: as §4, §5

[8] = molecular target: T8, Human Amyloid Beta 1-16 truncated peptide (human); test: as above
T8 construct: synthetic, unlabelled; also called Abeta 1-16
T8 peptide: DAEFRHDSGYEVHHQK
Description: as §4, §5

[9] = molecular target: T9, Amyloid beta plaques on Tg2576 mouse brain sections (human (transgene in Tg2576 mice), UniProt P05067 672-713); test: in vitro immunohistochemistry, core plaques
T9 construct: mixture of Amyloid beta species in tissue; also called Tg2576 brain sections; Amyloid beta plaques in aged Tg2576 mice

[10] = molecular target: T10, Amyloid beta plaques on human Alzheimer's Disease brain sections (human, UniProt P05067 672-713); test: in vitro immunohistochemistry, core plaques
T10 construct: mixture of Amyloid beta species in tissue; also called native Amyloid beta; human AD brain sections

[11] = molecular target: T2, Biotinylated Scrambled Amyloid Beta …; test: SPR (BIAcore T-100), antibody amine-coupled to a CM3 chip, peptide analyte at 400 nM (section 2.9)
Description: as §3, with “each peptide” for “human Amyloid beta 1-42”, “amine-linkage” for “amine linkage”
(§6) Blank reference flow-cell data were subtracted from each IgG dataset and a zero-concentration buffer blank was double-reference subtracted from the main dataset to reduce the impact of any buffer artefacts or non-specific binding effects.

[12] = molecular target: T4, Biotinylated Human Amyloid Beta 1-40 …; test: as above
Description: as §3, with “each peptide” for “human Amyloid beta 1-42”, “amine-linkage” for “amine linkage”
as §6

binding result [1]: binds
binding result [2]: no binding
EC50 (read off the curve) [3]: ~6 nM
binding result [4]: no binding (tested: 1e-7 M (Log M -7))
B1: Abet0007 sFab (Fab, V domains shown)
VH: EVQLLESGGGLVQPGGSLRLSCAASGFTFSVYTMWWVRQAPGKGLEWVSVIGSSGGTTVYADSVKGRFTISRDNSKNTLYLQMNSLRAEDTAVYYCAREGQQLVRPYYYYGMDVWGQGTLVTVSS
VL: QSVLTQPPSVSVSPGQTASITCSGHNLEDKFASWYQQKSGQSPVLVIYRDDKRPSGIPERFSASNSGHTATLTISGTQATDEADYYCQAQDSTTRVFGGGTKLTVL
notes: soluble single chain Fab fragment (sFab) from the Dyax Fab310-Lambda library, histidine tagged, purified from E. coli; also called Abet0007 Fab; purified Abet0007 Fab

Kd [5]: 9.5 nM
koff [5]: 0.00197 s⁻¹
kon [5]: 208000 M⁻¹ s⁻¹
binding result [6]: no binding (tested: 1e-5 M (logM -5))
binding result [7]: binds
binding result [8]: no binding (tested: 10 uM)
plaque staining score (0-4) [9]: 1
plaque staining score (0-4) [10]: 1.5
binding result [11]: no binding (tested: 400 nM)
binding result [12]: no binding (tested: 400 nM)
B2: Abet0144-GL IgG1-TM (antibody, V domains shown)
VH: B1 VH with G100W, Q101M, Q102D, L103H, V104S
VL: B1 VL with Q1S, S2Y, V3E, S39P, T80M
notes: human IgG1 with the triple mutation L234F/L235E/P331S (TM), human lambda light chain; also called Abet0144-GL (germlined) IgG1-TM
